Assay results from US20240117018A1.

What was measured:
Assay in all cases: cell-based or functional assay
[1] = molecular target: HIV-1 Env of pseudovirus 1006_11_C3_1601 (HIV-1)
[2] = molecular target: HIV-1 Env of pseudovirus 1012_11_TC21_3257 (HIV-1)
[3] = molecular target: HIV-1 Env of pseudovirus 1056_10_TA11_1826 (HIV-1)
[4] = molecular target: HIV-1 Env of pseudovirus 249M B10 (HIV-1)
[5] = molecular target: HIV-1 Env of pseudovirus 62357_14_D3_4589 (HIV-1)
[6] = molecular target: HIV-1 Env of pseudovirus 6240_08_TA5_4622 (HIV-1)
[7] = molecular target: HIV-1 Env of pseudovirus 6244_13_B5_4576 (HIV-1)
[8] = molecular target: HIV-1 Env of pseudovirus 7030102001E5(Rev-) (HIV-1)
[9] = molecular target: HIV-1 Env of pseudovirus AC10.0.29 (HIV-1)
[10] = molecular target: HIV-1 Env of pseudovirus BF1266.431a (HIV-1)
[11] = molecular target: HIV-1 Env of pseudovirus CAP45.2.00.G3 (HIV-1)
[12] = molecular target: HIV-1 Env of pseudovirus CNE17 (HIV-1)
[13] = molecular target: HIV-1 Env of pseudovirus CNE53 (HIV-1)
[14] = molecular target: HIV-1 Env of pseudovirus CNE58 (HIV-1)
[15] = molecular target: HIV-1 Env of pseudovirus Ce0393_C3 (HIV-1)
[16] = molecular target: HIV-1 Env of pseudovirus Ce2010_F5 (HIV-1)
[17] = molecular target: HIV-1 Env of pseudovirus Ce2060_G9 (HIV-1)
[18] = molecular target: HIV-1 Env of pseudovirus Ce704809221_1B3 (HIV-1)
[19] = molecular target: HIV-1 Env of pseudovirus Du172.17 (HIV-1)
[20] = molecular target: HIV-1 Env of pseudovirus Du422.1 (HIV-1)
[21] = molecular target: HIV-1 Env of pseudovirus HIV-0013095-2.11 (HIV-1)
[22] = molecular target: HIV-1 Env of pseudovirus MS208.A1 (HIV-1)
[23] = molecular target: HIV-1 Env of pseudovirus Q259.d2.17 (HIV-1)
[24] = molecular target: HIV-1 Env of pseudovirus Q461.e2 (HIV-1)
[25] = molecular target: HIV-1 Env of pseudovirus Q842.d12 (HIV-1)
[26] = molecular target: HIV-1 Env of pseudovirus QH0692.42 (HIV-1)
[27] = molecular target: HIV-1 Env of pseudovirus RHPA4259.7 (HIV-1)
[28] = molecular target: HIV-1 Env of pseudovirus TRJO4551.58 (HIV-1)
[29] = molecular target: HIV-1 Env of pseudovirus WEAU_d15_410_787 (HIV-1)
[30] = molecular target: HIV-1 Env of pseudovirus ZM109F.PB4 (HIV-1)
[31] = molecular target: HIV-1 Env of pseudovirus ZM135M.PL10a (HIV-1)
[32] = molecular target: HIV-1 Env of pseudovirus ZM197M.PB7 (HIV-1)
[33] = molecular target: HIV-1 Env of pseudovirus ZM214M.PL15 (HIV-1)
[34] = molecular target: HIV-1 Env of pseudovirus ZM233M.PB6 (HIV-1)
[35] = molecular target: HIV-1 Env of pseudovirus ZM249M.PL1 (HIV-1)
[36] = molecular target: HIV-1 Env of pseudovirus ZM53M.PB12 (HIV-1)
[37] = molecular target: HIV-1 Env of pseudovirus CNE5 (HIV-1)
[38] = molecular target: HIV-1 Env of pseudovirus CNE8 (HIV-1)

**Q.** For 3BNC117 (antibody), which IC50 [1] is on record?
**A.** The IC50 was 0.03 µg/mL.

**Q.** And the IC80 [1]?
**A.** Its IC80 is 0.1 µg/mL.

**Q.** What about the IC50 [2] of the same substance?
**A.** The IC50 was 0.02 µg/mL.

**Q.** What about the IC80 [2] of the same substance?
**A.** The IC80 was 0.07 µg/mL.

**Q.** And the IC50 [3]?
**A.** The IC50 was 0.3 µg/mL.

**Q.** And the IC80 [3]?
**A.** The IC80 was 1.82 µg/mL.

**Q.** What about the IC50 [4] of the same substance?
**A.** Its IC50 is 0.1 µg/mL.

**Q.** And the IC80 [4]?
**A.** The IC80 was 0.4 µg/mL.

**Q.** What about the IC50 [5] of the same substance?
**A.** The IC50 was 0.06 µg/mL.

**Q.** What about the IC80 [5] of the same substance?
**A.** Its IC80 is 0.26 µg/mL.

**Q.** And the IC50 [6]?
**A.** Its IC50 is 0.33 µg/mL.

**Q.** And the IC80 [6]?
**A.** The IC80 was 1.17 µg/mL.

**Q.** What about the IC50 [7] of the same substance?
**A.** The IC50 was 0.04 µg/mL.

**Q.** And the IC80 [7]?
**A.** Its IC80 is 0.15 µg/mL.

**Q.** And the IC50 [8]?
**A.** The IC50 was 0.29 µg/mL.

**Q.** What about the IC80 [8] of the same substance?
**A.** Its IC80 is 1.44 µg/mL.

**Q.** What about the IC50 [9] of the same substance?
**A.** Its IC50 is 13.8 µg/mL.

**Q.** And the IC80 [9]?
**A.** Its IC80 is greater than 50 µg/mL.

**Q.** And the IC50 [10]?
**A.** The IC50 was 0.03 µg/mL.

**Q.** And the IC80 [10]?
**A.** The IC80 was 0.09 µg/mL.

**Q.** And the IC50 [11]?
**A.** The IC50 was 3.88 µg/mL.

**Q.** And the IC80 [11]?
**A.** Its IC80 is greater than 50 µg/mL.

**Q.** And the IC50 [12]?
**A.** The IC50 was 5.76 µg/mL.

**Q.** What about the IC80 [12] of the same substance?
**A.** Its IC80 is 43 µg/mL.

**Q.** And the IC50 [13]?
**A.** Its IC50 is 0.08 µg/mL.

**Q.** What about the IC80 [13] of the same substance?
**A.** The IC80 was 0.99 µg/mL.

**Q.** What about the IC50 [14] of the same substance?
**A.** The IC50 was 0.25 µg/mL.

**Q.** And the IC80 [14]?
**A.** Its IC80 is 2.03 µg/mL.

**Q.** And the IC50 [15]?
**A.** The IC50 was 0.2 µg/mL.

**Q.** What about the IC80 [15] of the same substance?
**A.** The IC80 was 0.67 µg/mL.

**Q.** And the IC50 [16]?
**A.** The IC50 was 0.05 µg/mL.

**Q.** And the IC80 [16]?
**A.** Its IC80 is 0.21 µg/mL.

**Q.** What about the IC50 [17] of the same substance?
**A.** Its IC50 is 0.24 µg/mL.

**Q.** And the IC80 [17]?
**A.** Its IC80 is 0.81 µg/mL.

**Q.** And the IC50 [18]?
**A.** The IC50 was 0.08 µg/mL.

**Q.** What about the IC80 [18] of the same substance?
**A.** Its IC80 is 0.31 µg/mL.

**Q.** What about the IC50 [19] of the same substance?
**A.** Its IC50 is 1.19 µg/mL.

**Q.** And the IC80 [19]?
**A.** Its IC80 is 8.9 µg/mL.

**Q.** What about the IC50 [20] of the same substance?
**A.** The IC50 was greater than 50 µg/mL.

**Q.** What about the IC80 [20] of the same substance?
**A.** Its IC80 is greater than 50 µg/mL.

**Q.** And the IC50 [21]?
**A.** The IC50 was 0.33 µg/mL.

**Q.** What about the IC80 [21] of the same substance?
**A.** Its IC80 is 2.53 µg/mL.

**Q.** What about the IC50 [22] of the same substance?
**A.** Its IC50 is 0.01 µg/mL.

**Q.** And the IC80 [22]?
**A.** The IC80 was 0.09 µg/mL.

**Q.** What about the IC50 [23] of the same substance?
**A.** The IC50 was 0.01 µg/mL.

**Q.** What about the IC80 [23] of the same substance?
**A.** The IC80 was 0.05 µg/mL.

**Q.** What about the IC50 [24] of the same substance?
**A.** The IC50 was 0.03 µg/mL.

**Q.** What about the IC80 [24] of the same substance?
**A.** Its IC80 is 0.09 µg/mL.

**Q.** What about the IC50 [25] of the same substance?
**A.** Its IC50 is less than 0.01 µg/mL.

**Q.** What about the IC80 [25] of the same substance?
**A.** Its IC80 is 0.01 µg/mL.

**Q.** What about the IC50 [26] of the same substance?
**A.** The IC50 was 0.13 µg/mL.

**Q.** What about the IC80 [26] of the same substance?
**A.** Its IC80 is 0.49 µg/mL.

**Q.** And the IC50 [27]?
**A.** The IC50 was less than 0.09 µg/mL.

**Q.** And the IC80 [27]?
**A.** The IC80 was less than 0.09 µg/mL.

**Q.** And the IC50 [28]?
**A.** Its IC50 is 0.05 µg/mL.

**Q.** What about the IC80 [28] of the same substance?
**A.** The IC80 was 0.19 µg/mL.

**Q.** What about the IC50 [29] of the same substance?
**A.** The IC50 was 0.05 µg/mL.

**Q.** What about the IC80 [29] of the same substance?
**A.** Its IC80 is 0.19 µg/mL.

**Q.** And the IC50 [30]?
**A.** The IC50 was 0.14 µg/mL.

**Q.** And the IC80 [30]?
**A.** Its IC80 is 0.88 µg/mL.

**Q.** What about the IC50 [31] of the same substance?
**A.** The IC50 was 0.03 µg/mL.

**Q.** And the IC80 [31]?
**A.** Its IC80 is 0.13 µg/mL.

**Q.** What about the IC50 [32] of the same substance?
**A.** Its IC50 is 0.22 µg/mL.

**Q.** What about the IC80 [32] of the same substance?
**A.** Its IC80 is 1.03 µg/mL.

**Q.** What about the IC50 [33] of the same substance?
**A.** Its IC50 is 0.06 µg/mL.

**Q.** And the IC80 [33]?
**A.** The IC80 was 0.52 µg/mL.

**Q.** And the IC50 [34]?
**A.** Its IC50 is 0.13 µg/mL.

**Q.** What about the IC80 [34] of the same substance?
**A.** Its IC80 is 0.85 µg/mL.

**Q.** What about the IC50 [35] of the same substance?
**A.** Its IC50 is 0.03 µg/mL.

**Q.** What about the IC80 [35] of the same substance?
**A.** The IC80 was 0.11 µg/mL.

**Q.** What about the IC50 [36] of the same substance?
**A.** Its IC50 is 0.21 µg/mL.

**Q.** What about the IC80 [36] of the same substance?
**A.** The IC80 was 0.85 µg/mL.

**Q.** With PG16 (antibody) as the substance, how does the IC50 neutralization (TZM.bl) [37] read?
**A.** Its IC50 neutralization (TZM.bl) is 0.008 µg/mL.

**Q.** What about the IC80 neutralization (TZM.bl) [37] of the same substance?
**A.** Its IC80 neutralization (TZM.bl) is 0.033 µg/mL.

**Q.** Which results are given for PG9 (antibody)?
**A.** IC50 neutralization (TZM.bl) [37]: 0.018 µg/mL; IC80 neutralization (TZM.bl) [37]: 0.051 µg/mL

**Q.** N49P19 (antibody) was tested. Which neutralization IC50 [37] did it give?
**A.** The neutralization IC50 was 0.748 µg/mL.

**Q.** What about the neutralization IC80 [37] of the same substance?
**A.** Its neutralization IC80 is 3.29 µg/mL.

**Q.** And the neutralization MPI [37]?
**A.** The neutralization MPI was 100.

**Q.** And the neutralization IC50 [38]?
**A.** Its neutralization IC50 is 0.772 µg/mL.

**Q.** And the neutralization IC80 [38]?
**A.** Its neutralization IC80 is 4.84 µg/mL.

**Q.** And the neutralization MPI [38]?
**A.** The neutralization MPI was 97.

**Q.** With N49P9 (antibody) as the substance, how does the neutralization IC50 [38] read?
**A.** Its neutralization IC50 is 0.056 µg/mL.

**Q.** And the neutralization IC80 [38]?
**A.** The neutralization IC80 was 0.26 µg/mL.

**Q.** What about the neutralization MPI [38] of the same substance?
**A.** The neutralization MPI was 100.
